Starred links: 1 amine or outer side, 2 acyl side, 3 side chain; linkers in the order of their positions; H or OH if unused. Positions of bridges follow the written chain, without caps; N, C: chain ends. Non-standard residues stand in square brackets, D forms with d. Primed or numbered codes have the meaning given here. *: point of attachment. (4CF3PhAc)GAbu = (S)-2-amino-4-(N-(carboxymethyl)-2-(4-(trifluoromethyl)phenyl)acetamido)butanoic acid, O=C(Cc1ccc(C(F)(F)F)cc1)N(CC[C@H](N[*:1])C(=O)[*:2])CC(=O)[*:3]; (MeMorphBz)GAbu = (S)-2-amino-4-(N-(carboxymethyl)-4-(morpholinomethyl)benzamido)butanoic acid, O=C(c1ccc(CN2CCOCC2)cc1)N(CC[C@H](N[*:1])C(=O)[*:2])CC(=O)[*:3]; PyrS2″ = (S)-3-amino-1-((pent-4-en-1-yloxy)carbonyl)pyrrolidine-3-carboxylic acid (stapling residue), C=CCCCOC(=O)N1CC[C@@](N[*:1])(C(=O)[*:2])C1; (MorphAc)GAbu = (S)-2-amino-4-(N-(carboxymethyl)-2-morpholinoacetamido)butanoic acid, O=C(CN1CCOCC1)N(CC[C@H](N[*:1])C(=O)[*:2])CC(=O)[*:3]; TfeGA = (S)-2-amino-3-((carboxymethyl)(2,2,2-trifluoroethyl)amino)propanoic acid, O=C([C@H](CN(CC(=O)[*:3])CC(F)(F)F)N[*:1])[*:2]; PyrS2 = (S)-3-amino-1-((pent-4-en-1-yloxy)carbonyl)pyrrolidine-3-carboxylic acid, C=CCCCOC(=O)N1CC[C@@](N[*:1])(C(=O)[*:2])C1; (Pic)GAbu = (S)-2-amino-4-(N-(carboxymethyl)picolinamido)butanoic acid, O=C(c1ccccn1)N(CC[C@H](N[*:1])C(=O)[*:2])CC(=O)[*:3]; B5(22) = 2-amino-2-(pent-4-en-1-yl)hept-6-enoic acid (two alkene side chains), C=CCCCC(CCCC=C)(N[*:1])C(=O)[*:2]; HypEs5 = (2R,4S)-4-(pent-4-enoyloxy)pyrrolidine-2-carboxylic acid, C=CCCC(=O)O[C@H]1C[C@H](C(=O)[*:2])N([*:1])C1; GAbu = (S)-2-amino-4-((carboxymethyl)amino)butanoic acid, O=C([C@H](CCNCC(=O)[*:3])N[*:1])[*:2]; B5(3) = 2,2-bis(4-pentenyl)glycine (stitching residue), C=CCCCC(CCCC=C)(N[*:1])C(=O)[*:2]; B5 = 2-amino-2-(pent-4-en-1-yl)hept-6-enoic acid, C=CCCCC(CCCC=C)(N[*:1])C(=O)[*:2]; Phenylacetyl(2,3,4,5,6-F5) = O=C(Cc1c(F)c(F)c(F)c(F)c1F)*; Benzoyl(2,3,4,5,6-F5) = O=C(c1c(F)c(F)c(F)c(F)c1F)*; Acetyl(4-Me-piperazin-1-yl) = CN1CCN(CC(=O)*)CC1; Phe(3-COOH) = N[C@@H](Cc1cccc(C(=O)O)c1)C(=O)O; Phe(3-F) = N[C@@H](Cc1cccc(F)c1)C(=O)O; Phe(4-F) = N[C@@H](Cc1ccc(F)cc1)C(=O)O; 1Nal = N[C@@H](Cc1cccc2ccccc12)C(=O)O; Bta = N[C@@H](Cc1csc2ccccc12)C(=O)O; αAllylPro = C=CC[C@@]1(C(=O)O)CCCN1; tBuAla = CC(C)(C)C[C@H](N)C(=O)O; 3Thi = N[C@@H](Cc1ccsc1)C(=O)O
T1: B-cat-Halo (UniProt P35222 1-781)
T1 sequence (looked up): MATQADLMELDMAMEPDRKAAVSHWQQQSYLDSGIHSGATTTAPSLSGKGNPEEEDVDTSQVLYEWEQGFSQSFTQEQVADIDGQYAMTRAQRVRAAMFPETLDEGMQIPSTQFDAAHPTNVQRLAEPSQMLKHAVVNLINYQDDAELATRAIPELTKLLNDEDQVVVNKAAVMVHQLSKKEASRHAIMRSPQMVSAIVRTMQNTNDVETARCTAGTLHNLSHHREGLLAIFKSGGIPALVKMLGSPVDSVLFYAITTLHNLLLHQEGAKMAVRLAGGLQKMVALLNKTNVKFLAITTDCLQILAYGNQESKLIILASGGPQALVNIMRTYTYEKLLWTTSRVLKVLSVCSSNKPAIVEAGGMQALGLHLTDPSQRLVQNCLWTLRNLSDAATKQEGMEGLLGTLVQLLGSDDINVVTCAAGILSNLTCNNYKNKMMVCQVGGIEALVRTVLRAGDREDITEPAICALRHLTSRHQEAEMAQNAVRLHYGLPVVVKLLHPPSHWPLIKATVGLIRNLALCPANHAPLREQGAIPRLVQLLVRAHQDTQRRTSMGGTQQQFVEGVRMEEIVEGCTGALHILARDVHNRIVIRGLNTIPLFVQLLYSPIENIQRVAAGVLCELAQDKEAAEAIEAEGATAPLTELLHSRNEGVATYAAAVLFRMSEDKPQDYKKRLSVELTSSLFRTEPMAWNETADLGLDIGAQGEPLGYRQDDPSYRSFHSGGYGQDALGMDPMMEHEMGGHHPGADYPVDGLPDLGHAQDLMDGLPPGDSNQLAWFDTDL

T2: B-cat-Halo (beta-catenin HaloTag construct expressed in HEK293 cells) (UniProt P35222 1-781)
T2 sequence (looked up): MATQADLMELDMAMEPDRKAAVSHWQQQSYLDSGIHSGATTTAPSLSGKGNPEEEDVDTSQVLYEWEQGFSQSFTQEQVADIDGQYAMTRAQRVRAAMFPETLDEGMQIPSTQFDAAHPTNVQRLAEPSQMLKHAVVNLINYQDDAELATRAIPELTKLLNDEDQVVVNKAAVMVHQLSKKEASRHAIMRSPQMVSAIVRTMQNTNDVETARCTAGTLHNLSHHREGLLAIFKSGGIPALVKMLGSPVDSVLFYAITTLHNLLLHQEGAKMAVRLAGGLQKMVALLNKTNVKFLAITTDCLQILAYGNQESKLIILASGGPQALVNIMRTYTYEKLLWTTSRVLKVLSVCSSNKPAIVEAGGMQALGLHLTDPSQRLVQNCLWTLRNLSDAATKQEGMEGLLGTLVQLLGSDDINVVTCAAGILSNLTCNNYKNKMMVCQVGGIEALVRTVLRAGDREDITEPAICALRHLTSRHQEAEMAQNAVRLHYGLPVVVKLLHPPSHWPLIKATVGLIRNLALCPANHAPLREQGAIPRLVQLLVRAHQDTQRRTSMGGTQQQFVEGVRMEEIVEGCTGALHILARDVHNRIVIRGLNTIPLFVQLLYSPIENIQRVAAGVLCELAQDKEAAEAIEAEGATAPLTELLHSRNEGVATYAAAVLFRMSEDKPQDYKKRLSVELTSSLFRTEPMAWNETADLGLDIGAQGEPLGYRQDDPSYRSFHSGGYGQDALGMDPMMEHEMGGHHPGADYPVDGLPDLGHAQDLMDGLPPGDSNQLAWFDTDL


Target: T1, B-cat-Halo
Assay: cell-based or functional assay

Binder | NanoBRET Abs IC50 [µM]
Ac-[αAllylPro]D[tBuAla][B5(22)]D[(MorphAc)GAbu]AAFL[PyrS2][3Thi][Bta]Q-NH2 (staple 1-4, 4-11) [I-2249] | 42.2
Ac-[αAllylPro]D[tBuAla][B5(22)]D[GAbu](Acetyl(4-Me-piperazin-1-yl))AAFL[PyrS2][3Thi][Bta]Q-NH2 (staple 1-4, 4-11) [I-2250] | 36.2
Ac-[αAllylPro]D[tBuAla][B5(22)]D[GAbu](Phenylacetyl(2,3,4,5,6-F5))AAFL[PyrS2][3Thi][Bta]Q-NH2 (staple 1-4, 4-11) [I-2251] | 6.4
Ac-[αAllylPro]D[tBuAla][B5(3)]D[Phe(3-COOH)]AAFF[PyrS2″][3Thi][Bta]A-NH2 (staple 1-4, 4-11) [I-2259] | 4.3
Ac-[αAllylPro]D[tBuAla][B5(22)]D[(MeMorphBz)GAbu]AAFL[PyrS2][3Thi][Bta]Q-NH2 (staple 1-4, 4-11) [I-2248] | 21.5
Ac-[αAllylPro]D[tBuAla][B5(22)]D[GAbu](Benzoyl(2,3,4,5,6-F5))AAFL[PyrS2][3Thi][Bta]Q-NH2 (staple 1-4, 4-11) [I-2252] | 17.5
Ac-[αAllylPro]D[tBuAla][B5(22)]D[(4CF3PhAc)GAbu]AAFL[PyrS2][3Thi][Bta]Q-NH2 (staple 1-4, 4-11) [I-2246] | 12.9
Ac-[αAllylPro]D[tBuAla][B5(3)]D[Phe(3-COOH)]AAFL[PyrS2″][3Thi][Bta]A-NH2 (staple 1-4, 4-11) [I-2257] | 2.9
Ac-[αAllylPro]D[tBuAla][B5(22)]D[(Pic)GAbu]AAFL[PyrS2][3Thi][Bta]Q-NH2 (staple 1-4, 4-11) [I-2247] | 5.9
Ac-[αAllylPro]D[tBuAla][B5(3)]D[Phe(3-COOH)]AA[Phe(3-F)]L[PyrS2″][3Thi][Bta]A-NH2 (staple 1-4, 4-11) [I-2260] | 3.1

Continued, values first:

NanoBRET Abs IC50 [µM] | Binder
4.3 | Ac-[αAllylPro]D[tBuAla][B5(3)]D[Phe(3-COOH)]AAFL[PyrS2″][Phe(4-F)][Bta]A-NH2 (staple 1-4, 4-11) [I-2263]
> 20 | Ac-[HypEs5]D[tBuAla][B5(3)]D[TfeGA]AAFL[PyrS2″][3Thi][Bta]Q-NH2 (staple 1-4, 4-11; also: staple double bonds reduced to -CH2-CH2-) [I-2265]
25.5 | Ac-[HypEs5]D[tBuAla][B5(3)]D[TfeGA]AAFL[PyrS2″][3Thi][Bta]Q-NH2 (staple 1-4, 4-11) [I-2264]
3.7 | Ac-[αAllylPro]D[tBuAla][B5(3)]D[Phe(3-COOH)]AA[Phe(4-F)]L[PyrS2″][3Thi][Bta]A-NH2 (staple 1-4, 4-11) [I-2262]
6.4 | Ac-[αAllylPro]D[tBuAla][B5(3)]D[Phe(3-COOH)]AAFL[PyrS2″][Phe(3-F)][Bta]A-NH2 (staple 1-4, 4-11) [I-2261]

Target: T2, B-cat-Halo (beta-catenin HaloTag …)
Assay: cell-based or functional assay

NanoBRET Abs IC50 [µM] | Binder
26.4 | Ac-[αAllylPro]D[tBuAla][B5]DDAAFN[PyrS2][1Nal][Bta]H-NH2 (staple 1-4, 4-11) [I-794]
13.7 | Ac-[αAllylPro]D[tBuAla][B5]DDAAFN[PyrS2″][3Thi][Bta]N-NH2 (staple 1-4, 4-11) [I-816]
